To fix the notation:
B1: ZNF263 (parent)
chain: KPYKCTLCGENFSHRSNLIRHQRI
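Further: lentivirally expressed fusions sorted by FACS into six bins by GFP to DsRed ratio, PSI derived from sequencing read proportions per bin multiplied by bin number.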

The variants in the data set derive from B1. Put plainly: protein stability index of a GFP-peptide fusion (GPS, HEK-293T) (PSI 1-6); higher = more stable. The note with it: c terminus: a fixed tail appended.
As to KPYKCTLCGENSSHRSNLIRHQRI, the protein stability index worked out at 1.99.
The same measure for KPYKCTLCGENMSHRSNLIRHQRI: 2.01; for KPYKCTLCGENRSHRSNLIRHQRI: 1.54.
Turning to KPYKCTLCGENNSHRSNLIRHQRI, the protein stability index turned out to be 1.96.
The result for KPYKCTLCGENCSHRSNLIRHQRI reads 2.71; that for KPYKCTLCGENKSHRSNLIRHQRI, 1.58.
The result for KPYKCTLCGENASHRSNLIRHQRI reads 1.97; that for KPYKCTLCGENISHRSNLIRHQRI, 2.41.
The same measure for KPYKCTLCGENDSHRSNLIRHQRI: 1.28; for KPYKCTLCGENTSHRSNLIRHQRI: 1.66; for KPYKCTLCGENPSHRSNLIRHQRI: 1.57.
With KPYKCTLCGENLSHRSNLIRHQRI, the protein stability index was 2.1.
The result for KPYKCTLCGENVSHRSNLIRHQRI reads 3.52; that for KPYKCTLCGENQSHRSNLIRHQRI, 2.18; that for KPYKCTLCGENESHRSNLIRHQRI, 1.93.
Consider KPYKCTLCGENWSHRSNLIRHQRI, for which the protein stability index is 2.12.
The same measure for KPYKCTLCGENYSHRSNLIRHQRI: 1.44.
The result for KPYKCTLCGENHSHRSNLIRHQRI reads 2.65; that for KPYKCTLCGENGSHRSNLIRHQRI, 1.8; that for KPYKCTLCGENFSIRSNLIRHQRI, 2.07.
The result for KPYKCTLCGENFSTRSNLIRHQRI reads 2.75; that for KPYKCTLCGENFSQRSNLIRHQRI, 1.9.
For KPYKCTLCGENFSVRSNLIRHQRI, the protein stability index was 2.43.
The result for KPYKCTLCGENFSNRSNLIRHQRI reads 2.56.
On to KPYKCTLCGENFSKRSNLIRHQRI, for which the protein stability index came out at 2.81.
The same measure for KPYKCTLCGENFSYRSNLIRHQRI: 3.16; for KPYKCTLCGENFSCRSNLIRHQRI: 2.68; for KPYKCTLCGENFSLRSNLIRHQRI: 2.73.
The result for KPYKCTLCGENFSDRSNLIRHQRI reads 2.68; that for KPYKCTLCGENFSRRSNLIRHQRI, 2.41; that for KPYKCTLCGENFSGRSNLIRHQRI, 1.97.
The result for KPYKCTLCGENFSWRSNLIRHQRI reads 1.43.
On to KPYKCTLCGENFSARSNLIRHQRI, for which the protein stability index came to 2.56.
The result for KPYKCTLCGENFSMRSNLIRHQRI reads 2.55; that for KPYKCTLCGENFSFRSNLIRHQRI, 2.23; that for KPYKCTLCGENFSSRSNLIRHQRI, 3.56.
The same measure for KPYKCTLCGENFSERSNLIRHQRI: 2.95; for KPYKCTLCGENFSPRSNLIRHQRI: 1.85.
The result for KPYKCTLCGENFSHRSNAIRHQRI reads 2.35; that for KPYKCTLCGENFSHRSNVIRHQRI, 2.59; that for KPYKCTLCGENFSHRSNEIRHQRI, 1.81.
In the case of KPYKCTLCGENFSHRSNDIRHQRI, the protein stability index turned out to be 1.74.
The result for KPYKCTLCGENFSHRSNTIRHQRI reads 1.72; that for KPYKCTLCGENFSHRSNIIRHQRI, 1.95.
The same measure for KPYKCTLCGENFSHRSNCIRHQRI: 3.22; for KPYKCTLCGENFSHRSNYIRHQRI: 2.38.
On to KPYKCTLCGENFSHRSNQIRHQRI, for which the protein stability index turned out to be 2.42.
Consider KPYKCTLCGENFSHRSNFIRHQRI, for which the protein stability index came to 2.56.
The result for KPYKCTLCGENFSHRSNMIRHQRI reads 1.93.
The same measure for KPYKCTLCGENFSHRSNWIRHQRI: 2.19; for KPYKCTLCGENFSHRSNGIRHQRI: 1.98.
Turning to KPYKCTLCGENFSHRSNHIRHQRI, the protein stability index was found to be 2.93.
The result for KPYKCTLCGENFSHRSNRIRHQRI reads 2.81; that for KPYKCTLCGENFSHRSNKIRHQRI, 2.19; that for KPYKCTLCGENFSHRSNNIRHQRI, 2.21.
For KPYKCTLCGENFSHRSNSIRHQRI, the protein stability index turned out to be 1.77.
With KPYKCTLCGENFSHRSNPIRHQRI, the protein stability index stood at 1.88.
The result for KPYKCTLCGENFSHKSNLIRHQRI reads 2.28.
Regarding KPYKCTLCGENFSHLSNLIRHQRI, the protein stability index came out at 2.45.
For KPYKCTLCGENFSHWSNLIRHQRI, the protein stability index amounted to 2.54.
For KPYKCTLCGENFSHASNLIRHQRI, the protein stability index amounted to 2.87.
The same measure for KPYKCTLCGENFSHDSNLIRHQRI: 1.55; for KPYKCTLCGENFSHHSNLIRHQRI: 2.15; for KPYKCTLCGENFSHTSNLIRHQRI: 1.59.
The result for KPYKCTLCGENFSHISNLIRHQRI reads 2.73.
The result for KPYKCTLCGENFSHVSNLIRHQRI reads 2.88.
As to KPYKCTLCGENFSHYSNLIRHQRI, the protein stability index is 2.45.
The same measure for KPYKCTLCGENFSHQSNLIRHQRI: 2.43.
Turning to KPYKCTLCGENFSHCSNLIRHQRI, the protein stability index stood at 2.34.
The same measure for KPYKCTLCGENFSHGSNLIRHQRI: 2.08; for KPYKCTLCGENFSHMSNLIRHQRI: 2.85.
For the variant KPYKCTLCGENFSHNSNLIRHQRI, the protein stability index is 2.1.
The result for KPYKCTLCGENFSHSSNLIRHQRI reads 1.38; that for KPYKCTLCGENFSHFSNLIRHQRI, 2.96.
The same measure for KPYKCTLCGENFSHESNLIRHQRI: 2.69; for KPYKCTLCGENFSHPSNLIRHQRI: 2.52; for KPYKCTLCGYNFSHRSNLIRHQRI: 1.69.
The same measure for KPYKCTLCGWNFSHRSNLIRHQRI: 2.35; for KPYKCTLCGENFSHRSKLIRHQRI: 3.28; for KPYKCTLCGENFSHRSLLIRHQRI: 2.77.
For the variant KPYKCTLCGENFSHRSCLIRHQRI, the protein stability index was found to be 2.47.
The result for KPYKCTLCGENFSHRSFLIRHQRI reads 2.08; that for KPYKCTLCGENFSHRSWLIRHQRI, 2.07; that for KPYKCTLCGENFSHRSTLIRHQRI, 2.65.
In the case of KPYKCTLCGENFSHRSALIRHQRI, the protein stability index was 3.59.
The same measure for KPYKCTLCGENFSHRSHLIRHQRI: 3.64; for KPYKCTLCGENFSHRSYLIRHQRI: 3.12; for KPYKCTLCGENFSHRSRLIRHQRI: 2.64.
The same measure for KPYKCTLCGENFSHRSILIRHQRI: 2.93; for KPYKCTLCGENFSHRSMLIRHQRI: 2.87; for KPYKCTLCGENFSHRSQLIRHQRI: 2.9.
The result for KPYKCTLCGENFSHRSGLIRHQRI reads 3.16; that for KPYKCTLCGENFSHRSELIRHQRI, 3.31; that for KPYKCTLCGENFSHRSSLIRHQRI, 2.99.

Source of the values: the supplement of paper PMC10567573.
